Test results: the RNAGym collection of RNA variant scans (doi:10.7554/elife.90254)

B1: OR4K15 (parent)
chain: GUUAACGGUCAUAGGCCAUGGAAACUAGGAGCACCAUUUCGCUGCCAGUGAAGAAAUGAACAAAGAAAAUCUGGGCCAGGCAGGCAUCAAAAGAAAUAGUCUUGCGCUCAACCAGAAAGUCUGUAAUCAUUUUAAGGGUA

Variants of: B1
Assay: self-cleavage, relative activity (ratio to wild type); higher = more cleavage; in vitro, sequencing; the parent is a self-cleaving ribozyme

Row | Variant | self-cleavage
1 | U49A U127C | 0.38
2 | C42U A118G | 0.7
3 | A55G A67U | 1.53
4 | C6A U43C | 0.5
5 | A30U U57C | 1.31
6 | C46U A47G | 0.79
7 | U9C A95G | 1.88
8 | U72A U124C | 0.04
9 | G8A A118G | 1.28
10 | A116G U124A | 0.69
11 | A91U | 1.74
12 | A117U U127C | 0.61
13 | U87A A96U | 1.68
14 | U12C A110U | 1.26
15 | G74A U131C | 0.19
16 | U49G U131C | 1.56
17 | A110G A125G | 0.07
18 | A90U A118G | 1.24
19 | G44U U70A | 0
20 | U9C G104A | 0.06
21 | G1A A111G | 0.21
22 | C16A U102C | 1.49
23 | A51G C109U | 0.4
24 | A59U A67G | 1.25

Row | Variant | self-cleavage
25 | A30U A135U | 1.23
26 | A95G A135C | 2.68
27 | G21U A52G | 1.58
28 | U26C A140U | 0.35
29 | G44A U57C | 1.84
30 | A27U A52U | 2
31 | A60G G104A | 0.02
32 | G80U A91G | 0.11
33 | U37G A129G | 1.12
34 | U2C A24G | 1.09
35 | A51U A116G | 0.37
36 | A82G A86G | 0.14
37 | A36G A60U | 0.82
38 | U37C U97C | 2.06
39 | U120C U124C | 0.34
40 | A47G A60U | 1.4
41 | A135G A140G | 0.95
42 | A52G C85U | 0.87
43 | G15A A118G | 0.47
44 | A24G A117G | 1.45
45 | A64U U87G | 0.62
46 | U100A | 0.61
47 | A117C | 0.55
48 | G28A C88U | 2.33

Row | Variant | self-cleavage
49 | C16U A140G | 1.64
50 | A59G U87C | 1.19
51 | U108C A110U | 0.01
52 | A82U A114U | 0.01
53 | A11G C46U | 0.77
54 | A4G G137U | 2
55 | A51C A91G | 1.33
56 | U3G A11U | 0.74
57 | A56G U87G | 0.32
58 | U37C U57C | 1.18
59 | U37C A134G | 1.32
60 | A18C A68U | 1.04
61 | U9A U43C | 1.25
62 | A64G A135U | 1.28
63 | A4U U19C | 0.7
64 | A47U A125G | 0.28
65 | G14C A89G | 2.26
66 | A5U G29A | 1.2
67 | A30U A125G | 0.5
68 | A33G G74U | 0.19
69 | A67G U103G | 0.05
70 | A55C U124C | 0.95
71 | A27G A117G | 1.15
72 | U49C U100C | 2

Row | Variant | self-cleavage
73 | A27G G50A | 2.45
74 | A118G U120C | 0.44
75 | A52G A60U | 0.9
76 | A66G A90G | 1.17
77 | A118G A135G | 1.15
78 | C6U A78U | 0.25
79 | U19G U100C | 2.09
80 | A11G A129U | 0.45
81 | U2C U130C | 1.06
82 | A33C A59G | 1.39
83 | U43C U57C | 0.31
84 | U103A U108A | 0.02
85 | A95G A98U | 1.77
86 | A69G U72C | 0.3
87 | A118G U139A | 0.92
88 | U3C A18U | 0.78
89 | A94G G106A | 0
90 | G15C A78U | 0.37
91 | U3C A22G | 1.33
92 | A68G U139C | 0.95
93 | G75A C109U | 0.09
94 | U3C U57A | 0.88
95 | A23G A140G | 1.61
96 | A56G U70A | 1.49

Row | Variant | self-cleavage
97 | U108C U120A | 0.01
98 | U130C U139C | 1.09
99 | U70A A91G | 1.22
100 | U12A U108C | 0.04
101 | U9A A51U | 1.34
102 | A82U A91G | 0.11
103 | A47U A78U | 0.25
104 | A64G A66U | 0.44
105 | A23G U70C | 0.64
106 | U124G | 0.98
107 | A52U U131C | 0.4
108 | A4G A64C | 0.79
109 | A56G A126U | 0.95
110 | U43C C45A | 1.19
111 | A18G A24U | 1.6
112 | A92U A114U | 0.14
113 | A78C U127C | 0.18
114 | G29A A134G | 0.51
115 | U19C U38A | 1.46
116 | U9A A86U | 1.37
117 | U12C G28U | 0.66
118 | U19G G28C | 0.48
119 | A11G G115U | 0.27
120 | A92C A129G | 1.66

Row | Variant | self-cleavage
121 | A63U U72C | 0.41
122 | G20A C121U | 2.49
123 | A117G U132C | 1.85
124 | A4G A54G | 0.55
125 | U39C C45A | 0.46
126 | A11G A69G | 0.99
127 | A96G U130C | 0.97
128 | C45U A78U | 0.33
129 | U102C A129G | 1.74
130 | A82U A94G | 0.26
131 | A24G A54U | 1.48
132 | A24G A52U | 0.64
133 | U70C A134G | 0.72
134 | C45A A91G | 0.61
135 | A22G G28A | 1.28
136 | A59U G137U | 2.15
137 | U2G U39C | 2.03
138 | U70C U122C | 0.09
139 | A96G U132G | 1.85
140 | U26C U72C | 0.07
141 | A18U U139C | 1.45
142 | A24G C85G | 0.97
143 | G29A U108C | 0.03
144 | G28A U108A | 0.01

Row | Variant | self-cleavage
145 | C71A A117G | 0.35
146 | A86G C105A | 0.02
147 | C112A U127C | 0.03
148 | A82G U139G | 0.26
149 | U9A A116U | 0.18
150 | C17A A118G | 0.97
151 | G99A U120C | 0.26
152 | U103C U130C | 0.57
153 | G53U A59G | 1.26
154 | A24C A118G | 0.96
155 | G41A A67G | 1.02
156 | C112U U122C | 0.01
157 | C42G U108C | 0.01
158 | A22U U37C | 0.85
159 | A62U U120A | 2.24
160 | A13G U103C | 0.75
161 | A13G G123C | 1.35
162 | U38C A129U | 1.21
163 | A126G | 0.84
164 | A62G U127A | 1.79
165 | A13C U122G | 2.12
166 | G44A A91G | 0.42
167 | A63G A140U | 1.52
